As usually defined, the Kd is the concentration at which binding is half-saturated.

Kd data for two molecules are collected here from paper PMC3936775, “Differential contribution of basic residues to HIV-1 nucleocapsid protein’s nucleic acid chaperone function and retroviral replication”.

Data set [1] addresses HIV-1 NC WT (HIV-1 (NL4-3 isolate)) (UniProt P12493). The data set is described as follows: fluorescence anisotropy. The settings on record: FA: 20 mM HEPES pH 7.5, 50 mM NaCl, 10 uM TCEP, 5 mM beta-mercaptoethanol, 1 uM zinc acetate, 20 C, 30 min; 20 nM micro-TAR RNA or 10 nM (TG)4 DNA (Table …). A general note: Polarisation of emitted light reports the rotation of a fluorescent probe.

Another data set deals with HIV-1 NC WT (HIV-1 (NL4-3 isolate), UniProt P12493 378-432). The data set is described as follows: fluorescence anisotropy; 1 uM zinc acetate; FA: 20 mM HEPES pH 7.5, 50 mM NaCl, 10 uM TCEP, 5 mM beta-mercaptoethanol, 1 uM zinc acetate, 20 C, 30 min; 20 nM micro-TAR RNA or 10 nM (TG)4 DNA (Table 1 footnote: room temperature). Conditions: protein: recombinant; label: 5' carboxyfluorescein (FAM); single strand.

In the case of micro-TAR RNA 18-mer, the Kd in data set [1] was 315 nM.

Turning to TGTGTGTG (ssDNA) [(TG)4 DNA], the Kd with HIV-1 NC WT amounted to 5 ± 1 nM.
